Measured values published in the supplement of paper PMC6755084.

test system: F1*sub RNA substrate (template-directed ligation); assay: fraction ligated after 30 min (ligated reads / total reads); higher = more ligase activity; sequences stand for … in GAGACCGCAACTGAAAAGTTGT…AGTTCTGCACGTAGAAGCAAAAGGC; conditions: 42 °C
Method: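 Chip-synthesised pool of F1* ligase ribozyme variants (all single and double substitutions, single, double and triple deletions in the catalytic core and GAA bulge, plus designed variants) was transcribed with T7 and reacted as a pool with excess substrate F1*sub for 30 min at 42 C in 50 mM EPPS pH 8.5, 25 mM MgCl2. Ligated and unligated bands were separated by PAGE, barcoded by RT and deep sequenced; fraction ligated = ligated reads / total reads per variant, relative activity = FL / FL of wild type (0.826). Sequences are the DNA template of the ribozyme.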

Sequence | fraction ligated
TATCCTTGTCGTAAGACACTTTGGATGGTTG [3d1118] | 0.0169
TACATTGTCGTAAGACCTTTGGATGGGTTGA [3d557] | 0.214
ATCATTGTCGTAAGACCTTTGGATGGGTTGA [3d96] | 0.717
TATCACTGCGTAAGCCTTTGGATGGGTTGA [s2] | 0.814
TATACTTTCGTAAGACACTTGGATGGGTTGA [3d805] | 0.43
TATCACTTGGTAAGAACTTTGGATGGGTTGA [3d1589] | 0.804
TATCATTGCGTAGACACTTTGGATGGGTTGA [3d1159] | 0.823
TTCACTTGTCGTAAGACATTTGGATGGGTTG [3d483] | 0.731
TATCACTTGTCGAAACACTTTGATGGGTTGA [3d1919] | 0.721
TATCACTTGTGTAAGACATTTGGATGGTTGA [3d1783] | 0.169
TATCACTTGTCGTAAACACTTTGGTGGGTTG [3d2097] | 0.0291
TATCATTGTCGTAGACACTTTGGATGGGTTGA [2d115] | 0.798
TATCACTGTCTAAGACACTTTGGAGGGTTGA [3d1368] | 0.102
TATCACTTGTCGTAAGCATTTGATGGGTTGA [3d2122] | 0.408
TATCATTGTCGTAAGACACTTTGGTGGTTGA [3d1283] | 0.0252
ATCACTTGCGTAAGACACTTTGGAGGGTTGA [3d152] | 0.061
TATCATGCGTAAGACACTTTGGATGGGTTGA [3d1123] | 0.833
TATACTTGTCGTAGACACTTTGGTGGGTTGA [3d878] | 0.0282
TATCATTTCGTAGACACTTTGGATGGGTTGA [3d1143] | 0.802
TATCTTGTCGTAAGACACTTTGGATGGGTTGA [2d69] | 0.791
TTCACTTGTCTAAGACATTTGGATGGGTTGA [3d408] | 0.753
TATCACTTGCGTAGACACTTTGATGGGTTGA [3d1633] | 0.803

Sequence | fraction ligated
TATACTTGTCGTAAACACTTTGATGGGTTGA [3d887] | 0.182
TACACTGTCGTAAGACACTTTGGATGGTTGA [3d582] | 0.375
TATCACTTGCGAAGACACTTTGGAGGGTTGA [3d1622] | 0.105
TATCATTGTCGTAAACACTTTGATGGGTTGA [3d1231] | 0.597
ATCACTTGTCGAAGACACTTTGGATGGGTTA [3d196] | 0.707
TATCACTTTCTAAGCACTTTGGATGGGTTGA [3d1482] | 0.788
TATCACTTGTGTAAGACACTTTGATGGGTTG [3d1798] | 0.544
TATCACTTGTCGTAAACACTTTGATGGGTTG [3d2093] | 0.682
TATACTTGTCTAAGACACTTTGGATGGGTTGA [2d75] | 0.797
TTCCTTGTGTAAGACACTTTGGATGGGTTGA [3d301] | 0.782
ATCACTTGTCTAAGCACTTTGGATGGGTTGA [3d174] | 0.733
TATCCTTGTCGAGACACTTTGGATGGGTTGA [3d1029] | 0.793
TATCACTTGTCGAGACCTTTGGATGGGTTGA [3d1906] | 0.788
TATACTTGTCGTAAGACCTTTGGATGGGTTGA [2d81] | 0.746
TACACTTTCGTAAGCACTTTGGATGGGTTGA [3d590] | 0.0355
ATCACTTGTCGAAGACACTTTGGATGGGTTGA [2d11] | 0.777
TATACTTGTGTAAGACACTTTGGATGGTTGA [3d840] | 0.109
TATCACTTGTCGTAAGACTTTGGATGGGTTA [3d2112] | 0.792
TTCATTGTCGTAAGACACTTTGGATGGGTTA [3d334] | 0.0829
TATCATTGCGTAAGACACTTTGGATGGGTTG [3d1171] | 0.815
TACACTTGTGTAAGACACTTTGGAGGGTTGA [3d628] | 0.0881
TACACTGTCGTAAGCACTTTGGATGGGTTGA [3d574] | 0.463

Sequence | fraction ligated
TACACTTGTCGTAAGACCTTTGGATGGGTTGA [2d60] | 0.625
TATCATTGTCTAAGACACTTTGATGGGTTGA [3d1195] | 0.751
TAACTTGTCGTAAGACACTTTGGATGGGTTA [3d526] | 0.0297
TATCCTTGTCGTAAGAACTTTGGATGGGTTA [3d1081] | 0.351
TATCATTGCGTAAGACACTTTGGAGGGTTGA [3d1168] | 0.0323
TATCACTTGTCGTAGAACTTTGGATGGTTGA [3d2018] | 0.206
TATCACTTGTCGTGACACTTTGGATGGGTTG [3d1992] | 0.826
TATCACTTGCGAAGAACTTTGGATGGGTTGA [3d1616] | 0.842
TACACTTTCGTAAACACTTTGGATGGGTTGA [3d589] | 0.0248
TATCACTTGTCGTAGACACTTTGGAGGGTTG [3d2054] | 0.0621
TATCACTTGTCGAAGACACTTTGATGGTTGA [3d1967] | 0.0642
TATCACTTGTCAAGACACTTGGATGGGTTGA [3d1816] | 0.76
TATCACTTCGTAAGACACTTTGGAGGGTTGA [3d1323] | 0.0267
TATCACTTGTCGTAACATTTGGATGGGTTGA [3d1995] | 0.84
TATCACTTGTCGTAAGACACTTGGTGGGTTG [3d2247] | 0.0184
TATCACTTGTGTAAACACTTTGGATGGGTTG [3d1753] | 0.859
TATCACTTGTGTAAGACATTTGGATGGGTTA [3d1784] | 0.822
TATCACTTGTCGTAAACACTTGGATGGGTTGA [2d237] | 0.786
TATACTTGTCGTAAGACACTTTGGAGGGTTA [3d943] | 0.00392
TATCACTTGCGTAAGACACTTTGGATGGTTA [3d1701] | 0.227
TATCACTTGTCTAAGACCTTGGATGGGTTGA [3d1864] | 0.762
ATCACTTGTGTAAGACACTTTGGATGGGTTG [3d170] | 0.838

Sequence | fraction ligated
TATCACTTGTCGAGAACTTTGGATGGGTTGA [3d1905] | 0.819
TATCACTTGTCGTGACACTTTGGTGGGTTGA [3d1988] | 0.135
TATCACTTGTCGTAAACACTTGGTGGGTTGA [3d2083] | 0.119
TATCACTTGTTAAGACACTTTGATGGGTTGA [3d1712] | 0.786
TACACTTGTCGTAAACACTTTGGATGGGTTA [3d680] | 0.00723
TATCATTGTCGAAGACACTTTGGAGGGTTGA [3d1210] | 0.0625
TACCTTGTCGTAAGACACTTTGGATGGGTTGA [2d48] | 0.772
TATCACTTGTCGTAAGACACTTTATGGGTTGA [2d283] | 0.0284
TATCATGTCGTAAACACTTTGGATGGGTTGA [3d1128] | 0.765
TATCACTTTCGTAAACACTTTGGATGGGTTG [3d1528] | 0.776
TATCACTTTCGTAAGACCTTTGGATGGGTTG [3d1553] | 0.75
TATCACTTGTCAAGCACTTTGGATGGGTTGA [3d1812] | 0.785
TATCACTTGTCGTAACACTTTGGATGGGTTGA [2d222] | 0.796
TATCACTTGTCGTAAGACACTTGATGGGTTA [3d2242] | 0.0227
ATCATTGCGTAAGACACTTTGGATGGGTTGA [3d88] | 0.755
TATCACTTGTCTAAGACACTTTGGAGGTTGA [3d1895] | 0.095
TATCCTTGTCGTAAGCACTTTGGATGGGTTA [3d1073] | 0.381
TATCACTTGTCGTAAACATTTGATGGGTTGA [3d2075] | 0.384
TTCCTTGTCTAAGACACTTTGGATGGGTTGA [3d302] | 0.78
TATACTTGTCGTAAACACTTTGGATGGTTGA [3d890] | 0.0192
TATATTGTCGTAAACACTTTGGATGGGTTGA [3d765] | 0.367
TATCACTTGTCTAAGACCTTTGGATGGGTTA [3d1869] | 0.732

Sequence | fraction ligated
TATACTTGTTAAGACACTTTGGATGGGTTGA [3d828] | 0.793
TATCACTTGCTAAACACTTTGGATGGGTTGA [3d1601] | 0.777
TATCACTTGTCTAAGACACTTTGGAGGGTTG [3d1897] | 0.0676
TATCACTTGTCGTAAGACCTTTGGATGGTTGA [2d266] | 0.285
TACATTGTGTAAGACACTTTGGATGGGTTGA [3d550] | 0.0317
TTACTTGCGTAAGACACTTTGGATGGGTTGA [3d281] | 0.0196
TATCACTTGTTAAGACACTTTGGTGGGTTGA [3d1713] | 0.111
TATCACTTGCGTAGAACTTTGGATGGGTTGA [3d1629] | 0.862
TATCCTTGTCGTAAACACTTTGGAGGGTTGA [3d1061] | 0.0122
TATCATTCGTAAGACACTTTGGATGGGTTGA [3d1122] | 0.776
TATCCTTGTCGTAAGACACTTGGATGGGTTG [3d1103] | 0.742
TATCCTTGTCGTAAGACATTTGGATGGTTGA [3d1094] | 0.0378
TATCACTTGTGTAAGACCTTTGGATGGTTGA [3d1776] | 0.204
TATCACTTGTCGTAGAACTTTGGATGGGTTA [3d2019] | 0.854
TATCACTTGTCGTAAGAACTTGGATGGGTTA [3d2164] | 0.404
TATCACTTGTGTAAGACCTTTGGATGGGTTG [3d1778] | 0.812
TATCATTGTCGTAAAACTTTGGATGGGTTGA [3d1227] | 0.787
TATCACTGTCGTAAGAACTTTGGAGGGTTGA [3d1422] | 0.0317
TATCACTTGCGTAAGAACTTGGATGGGTTGA [3d1660] | 0.827
TATCACTGTCGTAAGACACTTTGGATGGTTA [3d1460] | 0.272
